According to patent US6277622:

Target: recombinant tropoelastin (human) (UniProt P15502)

percentage of total lysine in the precipitate (amino acid analysis) after 2 hrs at 37 C; formation of insoluble protein: 2.5 % lysine
Substance: recombinant human lysyl oxidase derived from the plasmid p3dL^m2 (enzyme)
